Reference: PMC3066130, “Molecular Architecture of the Human Mediator–RNA Polymerase II–TFIIF Assembly” (PLoS Biology, 2011)

Biological target: T1, human RNA polymerase II (12-subunit enzyme) (human, UniProt P24928 1-1970; P30876 1-1174; P19387 1-275; O15514 1-142; P19388 1-210; P61218 …)
T1 construct: RPB1, largest subunit of human pol II; RPB2, subunit of human pol II; RPB3, subunit of human pol II; RPB4, subunit of human pol II; RPB5, subunit of human pol II; RPB6, subunit of human pol II; RPB7, subunit of human pol II; RPB8, subunit of human pol II; RPB9, subunit of human pol II; RPB10, subunit of human pol II; RPB11, subunit of human pol II; RPB12, subunit of human pol II; The CTD of RPB1 …
Test: co-sedimentation
Conditions: both partners purified

- binding result: binds
B1: human TFIIF (Rap74 and Rap30) (complex)
chain 1: MAALGPSSQNVTEYVVRVPKNTTKKYNIMAFNAADKVNFATWNQARLERDLSNKKIYQEEEMPESGAGSEFNRKLREEARRKKYGIVLKEFRPEDQPWLLRVNGKSGRKFKGIKKGGVTENTSYYIFTQCPDGAFEAFPVHNWYNFTPLARHRTLTAEEAEEEWERRNKVLNHFSIMQQRRLKDQDQDEDEEEKEKRGRRKASELRIHDLEDDLEMSSDASDASGEEGGRVPKAKKKAPLAKGGRKKKKKKGSDDEAFEDSDDGDFEGQEVDYMSDGSSSSQEEPESKAKAPQQEEGPKGVDEQSDSSEESEEEKPPEEDKEEEEEKKAPTPQEKKRRKDSSEESDSSEESDIDSEASSALFMAKKKTPPKRERKPSGGSSRGNSRPGTPSAEGGSTSSTLRAAASKLEQGKRVSEMPAAKRLRLDTGPQSLSGKSTPQPPSGKTTPNSGDVQVTEDAVRRYLTRKPMTTKDLLKKFQTKKTGLSSEQTVNVLAQILKRLNPERKMINDKMHFSLKE
chain 2: MAERGELDLTGAKQNTGVWLVKVPKYLSQQWAKASGRGEVGKLRIAKTQGRTEVSFTLNEDLANIHDIGGKPASVSAPREHPFVLQSVGGQTLTVFTESSSDKLSLEGIVVQRAECRPAASENYMRLKRLQIEESSKPVRLSQQLDKVVTTNYKPVANHQYNIEYERKKKEDGKRARADKQHVLDMLFSAFEKHQYYNLKDLVDITKQPVVYLKEILKEIGVQNVKGIHKNTWELKPEYRHYQGEEKSD
notes: Rap74, large subunit of human TFIIF; Rap30, small subunit of human TFIIF; also called dimeric TFIIF complex
